First the molecules themselves.
B1: mouse monoclonal antibody 158 (mAb158) (antibody, V domains shown)
VH: DVQLVESGGGLVQPGGSRKLSCAASGFTFSSFGMHWVRQAPEKGLEWVAYISSGSSTIYYGDTVKGRFTISRDNPKNTLFLQMTSLRSEDTAMYYCAREGGYYYGRSYYTMDYWGQGTSVTVSS
VL: DVLMTQTPLSLPVSLGDQASISCRSSQSIVHSNGNTYLEWYLQKPGQSPKLLIYKVSNRFSGVPDRFSGSGSGTDFTLKISRVEAEDLGIYYCFQGSHVPPTFGGGTKLEIK
notes: Mouse hybridoma IgG with a kappa light chain; In the sandwich ELISA the detecting copy was biotinylated; also called BA9
B3: Aβ1-16 (peptide, UniProt P05067 672-687, looked up)
peptide: DAEFRHDSGYEVHHQK
notes: domain: Aβ1-16; also called N-terminal part of the Aβ peptide; Aβ1-16 peptide

Bounds are passed on as bounds.

One assay concerns the target T1, medin fibrils (UniProt Q08431 268-317, not fully specified).
T1 construct: Fibrils immobilized on a nitrocellulose membrane
T1 peptide (looked up): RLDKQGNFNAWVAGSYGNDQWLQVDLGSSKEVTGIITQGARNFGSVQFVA
In words: dot blot, fibrils on nitrocellulose membrane. From the text: (§1) Due to technical difficulties in generating protofibrils from other amyloidogenic proteins than Aβ, mAb158 was instead tested against different amyloid fibrils. The dot blot assay was used for these experiments since inhibition ELISA, where the antibody-antigen reactions take place in solution, is not suitable for insoluble antigens like fibrils. The dot blot assay is however not suitable for evaluation of antibody specificity for various Aβ forms, i.e. for measuring differences in selectivity for profibrils and fibrils. […] As positive controls the antibodies 6E10 (Aβ), pAb179 (medin), pAbA110 (IAPP) and mAb211 (α-synuclein) were used (FIG. 5B). Representative blots from repeated experiments (n=3).

For assay [1], the target named is T2, islet amyloid polypeptide (IAPP) fibrils (UniProt P10997 34-70, not fully specified).
T2 construct: Fibrils immobilized on a nitrocellulose membrane
T2 peptide (looked up): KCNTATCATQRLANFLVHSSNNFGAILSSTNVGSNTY
The experiment in a line: dot blot, fibrils on nitrocellulose membrane.
Text: as §1

Another assay addresses α-synuclein fibrils (UniProt P37840 1-140). The experiment in a line: dot blot, fibrils on nitrocellulose membrane.
Text: as §1

The target in assay [2] is T3, C-terminal fragment of Aβ (UniProt P05067 688-711).
T3 construct: domain: C-terminal fragment of Aβ; also called Aβ fragment 17-40
T3 peptide (looked up): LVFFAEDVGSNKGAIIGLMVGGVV
The experiment in a line: competitive ELISA, plate coated with Aβ protofibrils. How it is done: (§2) From competitive ELISA experiments, the antibody has a strong affinity for human Aβ42 wild-type protofibrils, but only very weak affinity for the N-terminal part of the Aβ peptide and Aβ monomers.
In FIG. 2B a competitive ELISA is shown. An ELISA plate was coated with human Aβ protofibrils. […] The incubation mix was added to the microtiter plate wells and free antibody was allowed to bind to immobilized protofibrils in the wells.
In general terms: ELISA stands for enzyme-linked immunosorbent assay.

The target in another assay is T4, AβArc protofibrils (human, UniProt P05067 672-713, limits assumed).
T4 construct: Used for a standard curve in the mAb158 sandwich ELISA; also called Arctic Aβ protofibrils
In words: sandwich ELISA, mAb158 as both capturing and detecting antibody. An excerpt: Establishment of an Aβ protofibril specific sandwich ELISA. To enable measurements of Aβ protofibrils in biological samples a sandwich ELISA with mAb158 as both capturing and detecting antibody was established. This assay measures Aβ protofibrils with a detection limit of 1 pM and with a linear range up to 250 pM (FIG. 6A, lines indicate linear regression of the standard curves). Due to uncertainties concerning the size of the Aβ protofibrils used in the standard curve, the concentration 1 pM is based on the molecular weight of one Aβ monomer (4514 g/mol), Though, since the molecular weight of a protofibril has been estimated to be at least 100 kDa, the limit of detection calculated as molar Aβ protofibrils could be as low as 50 fM. A standard curve of AβArc protofibrils gave a lower signal than wild type Aβ protofibrils, possibly due to differences in Aβ protofibril size (FIGS. 6A, 6B). Titrated synthetic LMW-Aβ (Low Molecular Weight Aβ). By the term "Low Molecular Weight Aβ", it is meant monomers, dimers and trimers of Aβ having a molecular weight of approximately 4-12 kDa. Aβ protofibrils and Aβ1-16 were used to validate the conformation specificity of the ELISA (FIG. 6B), where the hydrophilic Aβ1-16 peptide was used since it is not expected to aggregate. […]

The target in the next assay is T5, Aβ fibrils (UniProt P05067 672-713).
T5 construct: Insoluble fibrillar aggregate
The experiment in a line: sandwich ELISA, mAb158 as capture and biotinylated mAb158 as detector. The procedure:
as §2
In FIG. 2A a sandwich ELISA is shown. […] Colour development was measured according to the procedure recommended by the manufacturer.

For the assay “Aβ1-16”, the target named is B3. The experiment in a line: mAb158 sandwich ELISA with excess Aβ1-16 added to 50 pM Aβ protofibrils. From the text:
(§3) A large excess of monomeric Aβ, holoAPP and APP-fragments, naturally occurring in biological samples, could interfere with the Aβ protofibril analysis by occupying binding sites of the capture antibody coat, thus inhibiting the protofibrils from binding. This problem was investigated by adding an increasing excess of Aβ1-16 to a fixed concentration of Aβ protofibrils (50 pM, expressed as monomer units) and analyzing it with both the mAb158 ELISA and a 6E10-6E10 sandwich ELISA (FIG. 6C). […] Moreover, when synthetic Aβ protofibrils was added to mock HEK cell culture media or non-transgenic mouse brain homogenates, 90% of the signal was recovered (data not shown).

The target of assay [3] is T6, human Aβ42 wild-type protofibrils (human, UniProt P05067 672-713).
T6 construct: domain: Aβ42; Soluble oligomeric aggregate of many Aβ42 peptides; also called Aβ protofibrils; human wild-type Aβ protofibrils
The experiment in a line: competitive ELISA with monomeric and protofibrillar Aβ.

Assay [4] concerns the target B1. The experiment in a line: mAb158 sandwich ELISA, Aβ1-16 competing with 50 pM Aβ protofibrils.
Text: as §3

A further assay deals with 6E10. The experiment in a line: 6E10-6E10 sandwich ELISA, Aβ1-16 competing with 50 pM Aβ protofibrils.
Text: as §3

Sequence of 6E10 (VH, as listed by the source, chain 1 of 2): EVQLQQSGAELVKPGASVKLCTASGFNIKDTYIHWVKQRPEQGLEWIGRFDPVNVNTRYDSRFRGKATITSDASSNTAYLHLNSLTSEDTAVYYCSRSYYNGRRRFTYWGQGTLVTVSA
Sequence of 6E10 (VL, as listed by the source, chain 2 of 2): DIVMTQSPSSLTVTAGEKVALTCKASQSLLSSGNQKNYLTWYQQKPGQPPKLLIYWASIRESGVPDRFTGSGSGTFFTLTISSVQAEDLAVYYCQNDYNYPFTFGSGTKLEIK
T5 sequence (P05067 672-713): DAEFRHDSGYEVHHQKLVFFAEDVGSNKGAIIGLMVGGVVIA
T6 sequence (P05067 672-713 limits assumed): as the sequence (P05067 672-713) above
T4 sequence (P05067 other isoform, or with tags, fused parts or gaps limits assumed): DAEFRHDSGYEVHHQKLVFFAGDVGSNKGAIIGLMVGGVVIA

As for B1, the binding result with medin fibrils is listed as “no binding”; in assay [1], “no binding”; with α-synuclein fibrils it was “no binding”; in assay [2], “no binding”; with AβArc protofibrils, “binds”; with Aβ1-16, “binds”. For the same molecule, the “fold less cross-reactivity than with Aβ protofibrils” value with Aβ fibrils was under 40 fold.

B2: humanized 158 antibody (BAN2401) (antibody, V domains shown)
VH: EVQLVESGGGLVQPGGSLRLSCSASGFTFSSFGMHWVRQAPGKGLEWVAYISSGSSTIYYGDTVKGRFTISRDNAKNSLFLQMSSLRAEDTAVYYCAREGGYYYGRSYYTMDYWGQGTTVTVS
VL: DVVMTQSPLSLPVTPGAPASISCRSSQSIVHSNGNTYLEWYLQKPGQSPKLLIYKVSNRFSGVPDRFSGSGSGTDFTLRISRVEAEDVGIYYCFQGSHVPPTFGPGTKLEIK
Regarding B2, the binding result in assay [3] is recorded as “binds”.

In the case of B3, in assay [4], the “molar excess of Aβ1-16 over Aβ protofibrils that did not disturb the signal” value stood at 500000 fold. Moreover, in the assay with 6E10, the “molar excess of Aβ1-16 over Aβ protofibrils enough to decrease the signal” value was 500 fold.

The values above are taken from US8025878 (BIOARCTIC NEUROSCIENCE, dated 2011).
